B1: FIXa K247N/N249S/R318Y/R338E/E410N (protein)
chain 1: not shown
chain 2: not shown
B2: FIXa D104N/K106S/Y155F/K228N/K247N/N249S (protein)
chain 1: not shown
chain 2: not shown
B3: FIXa Y155F/K228N/K247N/N249S (protein)
chain 1: not shown
chain 2: not shown
B4: FIXa R318Y/R338E/R403E/E410S (protein)
chain 1: not shown
chain 2: not shown
B5: FIXa Y155F/K247N/N249S/R318Y/R338E/E410N (protein)
chain 1: not shown
chain 2: not shown

Target: Factor X (FX), P00742
Sequence (P00742 whole entry, looked up): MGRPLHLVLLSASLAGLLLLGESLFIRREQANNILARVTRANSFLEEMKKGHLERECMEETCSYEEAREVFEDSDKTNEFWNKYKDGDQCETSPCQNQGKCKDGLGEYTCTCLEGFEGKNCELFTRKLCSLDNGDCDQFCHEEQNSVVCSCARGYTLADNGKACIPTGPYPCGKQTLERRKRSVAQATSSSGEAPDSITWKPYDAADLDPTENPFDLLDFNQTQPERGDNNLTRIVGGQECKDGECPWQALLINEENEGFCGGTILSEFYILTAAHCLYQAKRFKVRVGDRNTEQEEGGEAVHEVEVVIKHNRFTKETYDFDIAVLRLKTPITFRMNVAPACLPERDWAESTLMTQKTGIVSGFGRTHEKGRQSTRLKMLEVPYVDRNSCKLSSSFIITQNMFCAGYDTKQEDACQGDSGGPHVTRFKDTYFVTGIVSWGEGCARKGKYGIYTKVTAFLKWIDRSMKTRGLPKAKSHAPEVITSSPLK

Question: With B1 as the protein, how does the KM read?
Answer: The KM was 0.0166 µM.

Question: And the kcat (Catalytic activity of FIXa variants)?
Answer: Its kcat (Catalytic activity of FIXa variants) is 3.8 s⁻¹.

Question: For B2, which KM is on record?
Answer: The KM was 0.0753 µM.

Question: And the kcat (Catalytic activity of FIXa variants)?
Answer: Its kcat (Catalytic activity of FIXa variants) is 4.7 s⁻¹.

Question: How did the kcat (Catalytic activity of FIXa variants) turn out when B3 was run?
Answer: The kcat (Catalytic activity of FIXa variants) was 4.3 s⁻¹.

Question: How did the KM turn out when B4 was run?
Answer: The KM was 0.0351 µM.

Question: What about the kcat (Catalytic activity of FIXa variants) of the same protein?
Answer: Its kcat (Catalytic activity of FIXa variants) is 5.8 s⁻¹.

Question: What about the kcat/KM of the same protein?
Answer: Its kcat/KM is 1.8e+08 M⁻¹ s⁻¹.

Question: For B5, which KM is on record?
Answer: The KM was 0.0153 µM.

Question: What about the kcat (Catalytic activity of FIXa variants) of the same protein?
Answer: Its kcat (Catalytic activity of FIXa variants) is 4.3 s⁻¹.

Question: And the kcat/KM?
Answer: Its kcat/KM is 3e+08 M⁻¹ s⁻¹.
